Results as given in the nanobody polyreactivity screen of Harvey et al. (2022).

assay: yeast display, Sf9 membrane polyspecificity reagent, FACS + sequencing; frameworks hold sequencing errors
How it was run: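 In a synthetic yeast display library (Saccharomyces cerevisiae BJ5465), nanobody expression was induced with galactose for 36–48 hours. FACS gates were set low and high (top ~1%) using anti-HA fluorescence for expression and streptavidin fluorescence for binding of the Sf9 membrane reagent. Each polyreactivity label is drawn from the gate of origin.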

Row | Sequence | polyreactivity (PSR sort gate)
1 | QDQLVESGGGLVQAGGSLRLSCAASGLTFPEYAMGWYRQAPGKERELVAAITWSGATTYYADSVKGRFTISRDNAKNTVYLQMNSLKPEDTAVYYCAAEYTVYNTALPGYYFTYYYWGQGTQVTVSS | high polyreactivity
2 | QVQLVESGGGLVQAGGSLRISCAASGIILSDNAMGWYRQAPGKEREFVAAITGSGGSTYYADSVKGRFTISRDNAKNTVYLQMNSLKPEDTAVYYCAADGPYGYYYGHYGYWGQGTQVTVSS | low polyreactivity
3 | QVQLVESGGGLVQAGGSLRLSCAASGFTFARYAMGWYRQAPGKERELVASISGSGGSTYYADSVKGRFTISRDNAKNTVYLQMNSLKPEDTAVYYCAADTWYGFDWGQGTQVTVSS | high polyreactivity
4 | QVQLVESGGGLVQAGGSLRLSCAASGSTFVYYAMGRYRQAPGKERELVAAITASGGGTYYADSVKGRFTISRDNAKNTVYLQMNSLKPEDTAVYYCNRGYDYWGQGTQVTVSS | low polyreactivity
5 | QEQLQESGGGLVKAGGSLRLSCAASGNISPRDAMGWYRQAPGEERDLVASNAYSAITYYADGVKGRYTISRDNAKNTVYVQMNSLKPEDTDVYYCEFYQFTYPVFPAYWGQGTQVTVSS | low polyreactivity
6 | QVQLVESGGGLVQAGGSLRLSCAASGFIFNHYRMGWYRPAPGKEREFVAAISWSGGSTYYADSVKGRFTISRDNAKNTVYLQMNSLKPEDTAVYYCAASYNGLWHGDYDYWGQGTQVTVSS | low polyreactivity
7 | QVQLVESGGGLVQAGGSLRLSCAASGSTFDSYAMGWYRQAPGKEGELVAAITGGGDTNYADSVKGRFTISRDNAKNTVYLQMNSLKPEDTAVYYCAAYQRRGNYQMDYWGQGTQVTVSS | low polyreactivity
8 | QVQLVESGGGLVQAGGSLRLSCAASGFTFIGYAMGWYRQAPGKEREFVAAITSGGSTYYADSVKGRFTISRDNAKNTVYLQMNSLKPEDTAVYYCAARSVYTASYRRVWINPQLDYWGQGTQVTVSS | high polyreactivity
9 | QVQLVESGGGLVQAGGSLRLSCAASGSIFGYYAMGWYRQAPGKERELVASITRSGGSTYYADSVKGRFTISRDNAKNTVYLQMNSLQPEDTAVYYCAVARYRHGRSGTYDVTGEYWGQGTQVTVSS | high polyreactivity
10 | QVQLVESGGGLVQAGGSLRLSCAASGRTFYRNAMGWSRPAPGKERELVAAISSDDSTNYADSVKGRFTISRDNAKNTVYLQMNSLKPEDTAVYYCNADYYYGYEYDYWGQGTQVTVSS | low polyreactivity
11 | QVKLVESGGGLVQAGGSLSLSCAASGSTIGGYAMGWYRQAPGKERELVAAIRRSGDSTYYADSVKGRFTISRDNAKNTVYLKMNRLKPEDTAVYYCAASYLHYRYRGRDYWGQGTQVTVSS | low polyreactivity
12 | QVQLVETGGGLVQAGGSLRLSCAASGSIFVYNAMGWYRQAPGKERELVAGITFIGGSTYYADSVKGRFTISRDNAKNTVFLQMNSLKPEDTAVYYCNADVAPGIFYGYDSWGQGTQVTVSS | low polyreactivity
13 | QVQLVESVGGLVQAGGSLRLTCAASVFTFGYYAMGWYRQAPGKERELVAAITWSGGRTYYADSVKGRFTISRDNAKYTVYLQMNSLKPEDTAVYYCAVETLWQGSEYWGQGTQVTVSS | low polyreactivity
14 | QVQLVETGGGLVQAGGSLRLSCAASGSTFESNAMGWYRQAPGKERELVAAISRGGNTYYADSEKGRFTISRDNAKNTVYLQMNSLKPEDTAVYYCNVDRGNPVPPSEYWGQGTQVTVSS | low polyreactivity
15 | QVQLVESGGGLVQAGGSLSLSCAASGSTFYANAMGWYRQAPGKEREFVAAISYNGGSTYYADSVKGRFTISRDNAKNTVYFQMNSLKPEDTAVYYCNVDYDYPYYEVDYWGQGTQVTVSS | low polyreactivity
16 | QVQLVESGGGLVQAGGSLRLSCAASGRTFKIYAMGWYRQAPGKEREFVASINWSGGITYYADSVKGRFTISRDNAKNTVYLQMNSLKPEDTAVYYCAARIDSSRIGKRFYYWGQGTQVTVSS | high polyreactivity
17 | QVHLVESGGVLVQAGGRHRISCAASGRTFIQNAMGWYRQAPGKERELVAAISWSGGSTYYADSVKGRFTISRDNAKNTVYLQMNSLKPADTAVSYCAAETYDYLFHTYEYWGQATQVTVSS | low polyreactivity
18 | QVQLVESGGGLVQAGGSLRLSCAASGSIFLRNAMGWSRQAPGKERELVAAISRSGGRTYYADSVKGRFTISRDNAKNTVYLQMNSLKPEDTAVYYCAADWADKYTGRYDYWGQGTQVTVSS | high polyreactivity
19 | QVQLVESGGGLVQAGGSLRLSCAASGRIFKINAMGWYRPAPGKERELVAGISGSGSDTYYADSVKGRFTISRDNAKNTVYLQMNSLKPEDTAVYYCAATVVQYYDRDYWGQGTQVTVSS | low polyreactivity
20 | QVQLVESGGGLVQAGGSLRLSCAASGFIFKDNAMGWYRQAPGKERELVAVSSGTGVRTNYADSVKGRFTISRDNAKNTVYLQMNSLKPEDSAVYYCIADTYRRAQLRFNSWGQGTQVTVSS | low polyreactivity
21 | QVQLVESGGGLVQAGGSLRLSCAASGFTFTGNAMGWYRPAPGKERELVAAISRSGGSTFYADSVKGRFTISRDNAKNTVYLQMNSLKPEDTAVYYCAARRRTLNYLYDYWGQGTQVTVSS | high polyreactivity

Row | Sequence | polyreactivity (PSR sort gate)
22 | QVQLVESGGGLVQAGGSLRLSCAASGRTFAQYAMGWYRQAPGKERELVAAISRSGGSTFYADSVKGRFTISRDNAKNTVYLQMNSLKPEDTAVYYCAAYNRQASLDYWGQGTQVTVSS | high polyreactivity
23 | QVQLVESGGGLVQAGGSLRLSCAASGITFYVNAMGWYRQAPGKERELVAAITQSVDITSYADSVKGRFTISRDNAMNTFYLQINRLKPEYTAVYYCATRGIPDDNARDYWGQGTQVTVSS | low polyreactivity
24 | QFHLVESGGGLVHAGGSLRLSCAASGNIFPPNTMGWYRQAPGKATELVAVITWSDGGTYADSVKGRFTISRDNAKKTVYLQMNSLKPEDTAVYYCNADYYFAAPKGEYTAWYDYWGKGTQVTVSS | low polyreactivity
25 | QVKLVESGGGLVQAGGSLRLSCAASGRIFNWYAMGWYRQAPGKERELVAAITSGGSTNYADSVKGRFTISRDNAKNTVYLQMNSLKPEDTAVYFCNARGRFRGYRYYYWGQGTQVTVSS | high polyreactivity
26 | QVQLVESGGGLVQAGGSLRLSCAASGSIFVGYAMGRYRQAPGKERELVAAISSRGGSTYYADSVKGRFTISRDNAKNTVYLQMNSLKPEDTGVYYCAAEYRAWWYEYDYWGQGTQVTVSS | high polyreactivity
27 | QVQLVESGGGLVQAGGSLRLSSAASGRTFYANAMGWYRQAPRKERELVAAISSGGITNYADSVKGRFTISRDNAKNTVYLQMNSLKPEDTAVYYCPYDYWGQGTQVTVSS | low polyreactivity
28 | QVQLVESGGGLVQAGGILRLSCAASGRIFYVNAMGWYRQAPGKERELVATIRRGGDTNYADSVKGRFTISRDNAKNTVYLQMNSLNPEDTAVYYCAAKAYQSSYQRYYWGQGTQVTVSS | high polyreactivity
29 | QVQLVESGGGLVQAGGSLRLSCAASGSTFFKYAMGWYRPAPRKERELVAAISYSGGSTYYADSVKGRFTISRDNAKNTVYLQMNSLKPEDTAVYYCAARVQNRYRPYYYWGQGTQVTVSS | high polyreactivity
30 | QVQLVESGGGVVQAGGSLRLSCAASGRIFHRYTMGWYRQARGKERELVAVISGLGGSTYYADSVKGRFTISRDNAKNTVYLQMNSLKPEDTAVYYCNRVGKYWSSDDSWGQGTQVTVSS | high polyreactivity
31 | QVQLVESGGGLVQAGGSLRLSCAASGSIFPYYAMGWYRQAPGKEWEFVAAISRRGGSTNYADSVKGRFTISRDTAKNTVYLQMNSLKPEDTAVYYCGKYTSYSRGYDYWGQGTQVTVSS | high polyreactivity
32 | QVQLVESGGGLVQAGGSLRLSCAASGIIFTNNAIGWYRQAPGKERELGAAITSGGRTYYADSVKGRFTISRDNAKNTVSLQMNSLKPEDTAVYYCNARYYYGGWRVGYWGQGTQLTVSS | high polyreactivity
33 | QVQLVESGGGLVQAGGSLRLSCAASGRIFSYNAMGWYRQAPGKERELVAAITFSGGGTYYADSVKGRFTISRDNAKYTVYLQMNSLKPEDTAVYYCNKVSYGYSTYGYWGQGTQVTVSS | low polyreactivity
34 | QVQLVESGGGLVQAGGSLRLSCAASGIIFRGNAMGWYRQAPGKERELVAAMSKSGGRTYYADSVKGRFTISRDNAKNTVYLQMNSLKPEDTAVYYCAARRSTSYPAGNDYWGQGTQVTVSS | high polyreactivity
35 | QVQLVESGGGLVQAGGSLRLSCAPSGIILYRYAMGWYRQAPGKERELVAAITYSGGSTYYADSVKGRFTISRDNAKNSVYLQMNSLNPEDTAVYYCAAESRAGRYYVSKPSNYWGQGTQVTVSS | high polyreactivity
36 | QVQLVESGGGLVQAGGSLRLSCAASGSTFPGNAMGWYRQAPGKERELVASIRRSGGSTYYADSVKGRFTISRDNAKNTVYLQMNSLKPADTAVDDCAKRTFLVSGPRSYGCYGVYYWGQGTQVTVSS | high polyreactivity
37 | QVQLVESGGGLVQAGGSHRLSCAASGRIYYYTMGWYRQAPGKERELVATITSSGSSTYYADSVKGRFTISRDNAKNTFYLQLNRLKPEDTAVYYCAAAGGGVRKVWGGSRYGYWGQGTQVTVSS | high polyreactivity
38 | QVQLVESGGGLVQAGGSLRLSCAPSGGTIAPYAMGWYRQASGKESELDATISNSGTSTNYADSVKGRFTISRDNAKNTVYLQMNSLKPEDTAVYYCAKRYHQYRWRGWLWGFDYWGQGTQVTVLS | high polyreactivity
39 | QVQLVESGGGLVQAGGSLRLSCAASGFIFAYNAMGWYRQAPGKERELVAAITGSGTRTYYADSVKGRFTISRDKAKNTVYLQMYSLKPEDTAVYYCAARFPRDTYYYWGQGTQVTVSS | high polyreactivity
40 | QVQLVESGGGLVQAGGSLRLSCAASGSTFQRYAMGWYRQAPGKERELVAVITNGGSTKYADSVKGRFTISRDNAKNTVYLQMNSLKPEDTAVYYCAAGLRSWSTGLWYGYWGQGTQVTVSS | high polyreactivity
41 | QVQLVESGGGLVQAGGSLRLSCAASGSIFGTYAMGWYRQAPGKEREMVARITSGGSTNYADSVKGRFTISRDNAKNTVFLQMNSLKPEDTAVYYCAARQYHWYLPSYWYRYDYWGQGTLVTVSS | high polyreactivity
